Results taken from patent publication CN117567617A (CHINA RESOURCES BIOMEDICAL CO LTD, dated 2024).

Legend:
[1] = biological target: T1, CLDN18.2 (species not stated); assay: flow cytometry on CLDN18.2-overexpressing cells, MFI against antibody concentration
T1 construct: whole, on cells; the form of the antigen in the ka/kd/KD measurement is not described; also called CLDN18.2过表达细胞; claudin18.2

[2] = biological target: T1, CLDN18.2 (species not stated at that …); assay: affinity measurement, method not described

B1: 全人源抗CLDN18.2抗体2A2 (CLDN-BC-2A2-hH1) (antibody, V domains shown)
VH: QVQLQQWGPGLVKPSQTLSLTCTVSGGSISSVGYYWSWIRQHPGQGLEWVGYIYYSGGTYYNPSLKSRVTISLDTSKNQFSLKLTSVTAADTAVYYCASYGSVSPYYYYYGMDVWGQGTTVTVSS
VL: DIVMTQSPSSVSASVGDRVTITCRASQGISSWLAWYQQKPGKAPNLLISAASSLQSGVPSRFSGNGSGTDFTLTISSLQPEDFASYYCQQANSFPITFGQGTRLEIK
notes: The label 2A2-hIgG1 points to a human IgG1 full antibody; Made by transient expression in ExpiCHO; also called CLN-2A2-hH1; 2A2-hIgG1
How did the EC50 [1] turn out when B1 was run?
Its EC50 is 0.62 µg/mL.

What about the Kd [2] of the same binder?
Its Kd is 5.24 nM.

And the koff [2]?
The koff was 0.00172 s⁻¹.

And the kon [2]?
Its kon is 328000 M⁻¹ s⁻¹.
